Data: publication PMC9463443

Molecular target: CCANdeltaCT (CENP-LN, CENP-HIKM, CENP-OPQUR; no CENP-C, no CENP-TWSX) (Homo sapiens, UniProt Q8N0S6;Q96H22;Q9H3R5;Q92674;Q9BS16;Q9NSP4;Q9BU64;Q6IPU0;Q7L2Z9;Q71F23;Q13352 …)
Assay: EMSA; 300 mM NaCl; EMSA: 20 mM HEPES-Na pH 7.5, 300 mM NaCl, 0.5 mM TCEP, 10 min on ice, 1% agarose in 0.5x TAE; SEC: Superose 6 (analytical SEC buffer not given in the material)
Details: protein: recombinant; tags: His6 C-term on CENP-N and CENP-Q; copies: 1;1;1;1;1;1;1;1;1;1;1; blunt

B1: 147 bp DNA (Widom 601) (dsDNA)
DNA 1: ATCGAGAATCCCGGTGCCGAGGCCGCTCAATTGGTCGTAGACAGCTCTAGCACCGCTTAAACGCACGTACGCGCTGTCCCCCGCGTTTTAACCGCCAAGGGGATTACTCCCTAGTCTCCAGGCACGTGTCACATATATACATCCGAT
DNA 2: ATCGGATGTATATATGTGACACGTGCCTGGAGACTAGGGAGTAATCCCCTTGGCGGTTAAAACGCGGGGGACAGCGCGTACGTGCGTTTAAGCGGTGCTAGAGCTGTCTACGACCAATTGAGCGGCCTCGGCACCGGGATTCTCGAT
B1: binds.
